The record followed here is patent US20240294611A1.

Values joined by “and” are separate entries in the source; they are usually repeats but may differ in a detail not shown here. Equal values may be shown once.

This assay addresses SARS-CoV-2 spike (two-proline stabilized S-2P extracellular domain fused to foldon) (SARS-CoV-2) (UniProt P0DTC2).

Turning to antibody S309 (Pinto et al., 2020), the Kd is 0.007 µM and 0.02 µM.

Usually Kd stands for a measure of binding affinity in units of concentration.
